*1 amine or outer side, *2 acyl side, *3 side chain or, on linkers, in order; H or OH if unused. Bridges are numbered along the chain shown (N, C = ends). Where no end group is shown, it is not given here. Side-chain parts run from the residue outwards. [ ]: non-standard residue; d: D form. The star is where a group is joined. Ttds = 1,13-diamino-4,7,10-trioxatridecan-succinamic acid, NCCCOCCOCCOCCCNC(=O)CCC(=O)*; NH(1-deoxy-D-glucityl) = OC[C@@H](O)[C@@H](O)[C@H](O)[C@@H](O)CN*; Pro(trans-4-NH2) = O=C([C@@H]1C[C@@H](N[*:3])CN1[*:1])[*:2]; DOTA = O=C(O)CN1CCN(CC(=O)O)CCN(CC(=O)*)CCN(CC(=O)O)CC1; 2Lut = 2,6-lutidylidene bridge between two thiols; Trp(5-Br) = N[C@@H](Cc1c[nH]c2ccc(Br)cc12)C(=O)O; Trp(5-Cl) = N[C@@H](Cc1c[nH]c2ccc(Cl)cc12)C(=O)O; Pyridine(2,6-diCH2) = c1cc(C[*:1])nc(C[*:2])c1; Trp(6-F) = N[C@@H](Cc1c[nH]c2cc(F)ccc12)C(=O)O; APAc = 4-amino-1-carboxymethylpiperidine; Pro(3S-OH) = O=C(O)[C@H]1NCC[C@@H]1O; mXylylene = c1cc(C[*:1])cc(C[*:2])c1; Glutaryl = O=C(CCCC(=O)[*:2])[*:1]; Hyp = O=C(O)[C@@H]1C[C@@H](O)CN1; Cysteamide = C(CS[*:3])N[*:1]; dGlu(AGLU) = not defined here; Suc = O=C(CCC(=O)[*:2])[*:1]; αMeS = C[C@](N)(CO)C(=O)O; Api = NC1(C(=O)O)CCNCC1; Thp = NC1(C(=O)O)CCOCC1; AEEA = NCCOCCOCC(=O)O; Aib = CC(C)(N)C(=O)O; Sar = CNCC(=O)O
Assays:
[1] = target: T1, GIPR (CHO-K1-hGIPR cells) (Homo sapiens, UniProt P48546); test: FACS binding assay; details: competition with 20 nM GIP-057, 4° C., 1 hour
T1 construct: host or cells: CHO-K1
T1 sequence (P48546 22-466): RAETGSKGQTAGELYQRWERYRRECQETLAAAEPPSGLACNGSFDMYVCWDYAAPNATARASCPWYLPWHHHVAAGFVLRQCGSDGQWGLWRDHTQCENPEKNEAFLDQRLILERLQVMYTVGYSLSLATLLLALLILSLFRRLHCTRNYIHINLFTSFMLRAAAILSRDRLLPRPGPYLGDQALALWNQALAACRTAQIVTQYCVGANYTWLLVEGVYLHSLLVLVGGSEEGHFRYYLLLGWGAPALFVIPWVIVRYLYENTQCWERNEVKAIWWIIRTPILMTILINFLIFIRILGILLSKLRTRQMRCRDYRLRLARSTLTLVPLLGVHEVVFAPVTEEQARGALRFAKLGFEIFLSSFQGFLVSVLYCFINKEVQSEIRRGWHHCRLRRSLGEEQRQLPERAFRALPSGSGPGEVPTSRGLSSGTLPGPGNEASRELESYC
Method in brief: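 Steps: detach CHO-K1-hGIPR cells (Accutase); wash in PBS/1% FCS; adjust to 500.000 cells per mL; wash ice-cold; incubate APC-streptavidin 1 μg/mL, 30 min on ice; wash twice; acquire on flow cytometer; fit MFI-concentration data with a four-parameter logistic model.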

[2] = target: human Gastric Inhibitory Peptide Receptor (human) (UniProt P48546); test: FACS competition with GIP-057 on CHO-K1-hGIPR cells; pIC50 category A: >8.0

Molecule: HO-Succinyl-Trp-5Clw-Hyp-Glu-leu-[Cys(2Lut)-Apc(MeO2kDaPEGAc)-Leu-Ile-Cys]-APAc-Lys(DOTA)-NH2 [GIP-143]
- pIC50 Category [1]: B (pIC50 values between 7.1 and 8.0)

Molecule: HO-Succinyl-Trp-5Clw-Hyp-Glu-leu-[Cys(2Lut)-Thp-Leu-Ile-Cys]-APAc-lys(MeO2kDaPEGAc)-Lys(DOTA)-NH2 [GIP-144]
- pIC50 Category [1]: B (pIC50 values between 7.1 and 8.0)

Molecule: MeO2kDaPEGAc-Asp-Trp-5Clw-Hyp-Glu-leu-[Cys(2Lut)-Thp-Leu-Ile-Cys]-lys(DOTA)-NH2 [GIP-120]
- pIC50 Category [1]: A (pIC50 values>8.0)

Molecule: Suc-W[Trp(5-Cl)][Hyp]E[dL]C[Thp]LIC-{Lys(DOTA)-NH2} (linker 6-10 via Pyridine(2,6-diCH2)) [HO-Succinyl-Trp-5Clw-Hyp-Glu-leu-[Cys(2Lut)-Thp-Leu-Ile-Cys]-Lys(DOTA)-NH2]
- pIC50 [2]: > 8 pic50

Molecule: {DOTA-dGlu(AGLU)-AEEA}-DW[Trp(5-Cl)][Pro(trans-4-NH2)]E[dL]C[Api]([Glutaryl-NH(1-deoxy-D-glucityl)])LIC-{APAc-dGlu(AGLU)-NH2} (linker 7-11 via 2Lut; reading uncertain)
- pIC50 [2]: > 8 pic50

Molecule: {DOTA-Ttds}-D[Trp(6-F)][Trp(5-Br)]PE[dL]C[Aib]LI[Cysteamide] (linker 7-11 via mXylylene) [DOTA-Ttds-Asp-6Fw-5Brw-Pro-Glu-leu-[Cys(3MeBn)-Aib-Leu-Ile-AET]]
- pIC50 [2]: > 8 pic50

Molecule: {DOTA-Ttds}-D[Trp(6-F)][Trp(5-Cl)]PE[dL]C[Aib]LI[Cysteamide] (linker 7-11 via mXylylene) [DOTA-Ttds-Asp-6Fw-5Clw-Pro-Glu-leu-[Cys(3MeBn)-Aib-Leu-Ile-AET]]
- pIC50 [2]: > 8 pic50

B1: DOTA-Ttds-Asp-Trp-5Clw-Pro-Glu-leu-[Cys(3MeBn)-Ams-Leu-Ile-AET] (peptide)
peptide: {DOTA-Ttds}-DW[Trp(5-Cl)]PE[dL]C[αMeS]LI[Cysteamide]
modifications: linker (positions not given here) via mXylylene; not fully specified (bridges); printed as DOTA-Ttds-Asp-Trp-5Clw-Pro-Glu-leu-[Cys(3MeBn)-Ams-Leu-Ile-AET]
- pIC50 [2]: > 8 pic50

Molecule: W[Trp(5-Cl)][Hyp]E[dL]C[Thp]LIC-{dK(DOTA)-NH2} (linker 6-10 via 2Lut; not fully specified (N-terminus)) [HO-Succinyl-Trp-5Clw-Hyp-Glu-leu-[Cys(2Lut)-Thp-Leu-Ile-Cys]-lys(DOTA)-NH2]
- pIC50 [2]: > 8 pic50

B2: DOTA-Ttds-Asp-Trp-5Clw-Nmg-Glu-leu-[Cys(3MeBn)-Aib-Leu-Ile-AET] (peptide)
peptide: {DOTA-Ttds}-DW[Trp(5-Cl)][Sar]E[dL]C[Aib]LI[Cysteamide]
modifications: linker (positions not given here) via mXylylene; not fully specified (bridges); printed as DOTA-Ttds-Asp-Trp-5Clw-Nmg-Glu-leu-[Cys(3MeBn)-Aib-Leu-Ile-AET]
- pIC50 [2]: > 8 pic50

Molecule: {DOTA-Ttds}-DW[Trp(5-Cl)][Pro(3S-OH)]E[dL]C[Aib]LI[Cysteamide] (linker 7-11 via mXylylene) [DOTA-Ttds-Asp-Trp-5Clw-H3p-Glu-leu-[Cys(3MeBn)-Aib-Leu-Ile-AET]]
- pIC50 [2]: > 8 pic50

Source: patent US20250296971A1, “GASTRIC INHIBITORY PEPTIDE RECEPTOR LIGANDS” (priority 2021, published 2025)
